Measurements taken from patent US20260274981A1 (VIB VZW, published 2026).

T1: recombinant cynomolgus TfR (90253-C07H, Sino Biological), biotinylated (cynomolgus monkey, UniProt Q5RDH6 89-760 (Pongo abelii entry), biotinylated with EZ-Link NHS-PEG4-Biotinylation Kit)
T1 construct: Bought protein; also called immobilized recombinant cynomolgus TfR
T1 chain: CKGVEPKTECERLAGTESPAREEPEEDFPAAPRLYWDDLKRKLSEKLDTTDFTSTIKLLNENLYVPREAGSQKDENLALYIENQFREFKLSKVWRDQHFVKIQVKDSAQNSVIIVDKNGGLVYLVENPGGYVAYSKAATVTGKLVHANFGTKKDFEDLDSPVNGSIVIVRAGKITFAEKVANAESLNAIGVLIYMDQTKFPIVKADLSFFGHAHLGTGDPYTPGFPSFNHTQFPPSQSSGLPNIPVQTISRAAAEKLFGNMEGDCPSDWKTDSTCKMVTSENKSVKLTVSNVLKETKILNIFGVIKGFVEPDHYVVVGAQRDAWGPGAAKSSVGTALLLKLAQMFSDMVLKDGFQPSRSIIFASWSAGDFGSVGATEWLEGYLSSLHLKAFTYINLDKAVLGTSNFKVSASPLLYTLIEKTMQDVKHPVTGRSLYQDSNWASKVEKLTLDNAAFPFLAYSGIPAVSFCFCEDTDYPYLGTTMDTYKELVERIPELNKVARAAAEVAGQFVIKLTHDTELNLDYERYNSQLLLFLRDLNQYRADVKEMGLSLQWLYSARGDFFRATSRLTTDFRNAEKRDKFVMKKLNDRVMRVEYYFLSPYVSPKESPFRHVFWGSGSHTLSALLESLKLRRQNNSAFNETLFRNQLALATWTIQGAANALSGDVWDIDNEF


Assays:
[1] = target: T1, recombinant cynomolgus TfR (90253-C07H, …); experiment: SPR (Biacore T200), biotinylated cynomolgus TfR captured on SA chip, VHH as analyte, single cycle kinetics
Excerpt: (§1) Phage libraries generated after 4 biweekly immunizations of two different camelids, underwent two rounds of pannings on CHO cell lines overexpressing either cynomolgus TfR in the first round or human TfR in the second round. Output libraries were screened with flow cytometry to find binders to human TfR overexpressing cells (FIG. 1A). […] Binding kinetics to recombinant human and cynomolgus TfR were further characterized with Surface Plasmon Resonance (SPR).
Surface Plasmon Resonance (SPR) was used to measure the interaction between VHHs and human or cynomolgus TfR receptor. Human TfR (2474-TR, R&D Systems) and cynomolgus TfR (90253-C07H, Sino Biological) were biotinylated with the EZ-Link NHS-PEG4-Biotinylation Kit (ThermoFischer Scientific) according to the manufacturer instructions. The binding experiments were performed at 25° C. on a Biacore T200 instrument (Cytiva, Uppsala, Sweden) in HBS-EP+ buffer (10 mM HEPES, 150 mM NaCl, 3 mM EDTA and 0.05% v/v Surfactant P20). Biotinylated human TfR and cynomolgus TfR were captured on a SA sensor chip (Cytiva) at a density of around 250 RU. Increasing concentrations of VHHs were sequentially injected in one single cycle at a flow rate of 30 μl/min. The dissociation was monitored for 20 min. […] A reference flow was used as a control for non-specific binding and refractive index changes. Several buffer blanks were used for double referencing. […]

[2] = target: T2, recombinant human TfR (2474-TR, R&D Systems), biotinylated (human, UniProt P02786 89-760, biotinylated with EZ-Link NHS-PEG4-Biotinylation Kit); experiment: SPR (Biacore T200), biotinylated human TfR captured on an SA chip as ligand, VHH as analyte, single cycle kinetics, 1:1 binding model
T2 construct: Bought protein; also called immobilized recombinant human TfR; biotinylated human TfR
Excerpt: as §1
(§2) Surface Plasmon Resonance (SPR) was used to measure the interaction between VHHs and human or cynomolgus TfR receptor. Human TfR (2474-TR, R&D Systems) and cynomolgus TfR (90253-C07H, Sino Biological) were biotinylated with the EZ-Link NHS-PEG4-Biotinylation Kit (ThermoFischer Scientific) according to the manufacturer instructions. The binding experiments were performed at 25° C. on a Biacore T200 instrument (Cytiva, Uppsala, Sweden) in HBS-EP+ buffer (10 mM HEPES, 150 mM NaCl, 3 mM EDTA and 0.05% v/v Surfactant P20). Biotinylated human TfR and cynomolgus TfR were captured on a SA sensor chip (Cytiva) at a density of around 250 RU. Increasing concentrations of VHHs were sequentially injected in one single cycle at a flow rate of 30 μl/min. The dissociation was monitored for 20 min. […] A reference flow was used as a control for non-specific binding and refractive index changes. Several buffer blanks were used for double referencing. Binding affinities (KD) and kinetic rate constants (kₒₙ, koff) were derived after fitting the experimental data to the 1:1 binding model with the Biacore T200 Evaluation Software 3.1 using the single cycle kinetic procedure. Each interaction was repeated a least three times.

[3] = target: T1, recombinant cynomolgus TfR (90253-C07H, …); experiment: SPR (Biacore T200), biotinylated cynomolgus TfR captured on an SA chip as ligand, VHH as analyte, single cycle kinetics, 1:1 binding model
Excerpt: as §1, §2

[4] = target: T3, human TfR overexpressed on CHO cells (human, UniProt P02786 1-760); experiment: flow cytometry on CHO cells overexpressing human TfR (CHO-hTfR), VHH detected with anti-FLAG-iFluor647; median Flag-i647 intensity in total GFP cells
T3 construct: construct is TfR followed by an HA tag and IRES-GFP; also called hTfR; human transferrin receptor
Description: Output libraries were screened with flow cytometry to find binders to human TfR overexpressing cells (FIG. 1A). […] Binding kinetics to recombinant human and cynomolgus TfR were further characterized with Surface Plasmon Resonance (SPR).
Periplasmic extracts diluted 1:10 in PBS 2% FBS, or a dilution range of different VHH or bispecific antibody concentrations prepared in PBS 2% FBS, were incubated with 0.1 million CHO cells overexpressing either the human, cynomolgus or mouse TfR for 30 min at 4° C. As control for background binding, periplasmic extracts, VHHs or bispecific antibodies were also incubated with 0.1 million CHO cells overexpressing GFP. Binding of VHHs was next resolved by a second step 30 min incubation at 4° C. with an anti-FLAG-iFluor647 antibody (A01811, Genscript) diluted 1:500 for screening and 1:250 for validation assays, or with anti-human IgG Fc-Alexa Fluor647 antibody (410714, BioLegend) diluted 1:200. […] Cells were fixed with 4% paraformaldehyde before being analyzed. Flp-In™-CHO™ cells used as unstained control and single stain controls were used to determine the cut-off point between background fluorescence and positive populations. […] The data was acquired with an Attune Nxt flow cytometer (Invitrogen) and analyzed by FCS Express 7 Research Edition.

Row | Binder | Kd [1] | koff [2] | kon [2] | koff [3] | kon [3] | EC50 (read off the curve) [4]
1 | BBB00515 (VHH, Lead VHH expressed in E. coli TG1 and purified by IMAC; detected with anti-FLAG antibody in flow cytometry; also called BBB00515 VHH; not shown: C-terminal 3xFlag/6xHis tag from expression vector pBDS119) VHH: QVQLQESGGGLVQAGGSLRLSCAASGSIFSINAMGWYRQAPGKQRELVAVITSGGSTIYADSVKGRFTISRDNAENTVYLQMNSLKPEDTAVYYCNAHVGLKVPTIQELSLGFGSWGQGTQVTVSS | 63 nM | 0.0137 s⁻¹ | 15000 M⁻¹ s⁻¹ | 0.00942 s⁻¹ | 149000 M⁻¹ s⁻¹ | ~50 nM
2 | BBB00533 (VHH, Lead VHH expressed in E. coli TG1 and purified by IMAC; detected with anti-FLAG antibody in flow cytometry; also called BBB00533 VHH; not shown: C-terminal 3xFlag/6xHis tag from expression vector pBDS119) VHH: QVQLQESGGGSVQPGGSLRLSCTASGRTFNYAMGWFRQAPGKNREFVATIDWKDGSSYYLDSVRGRFTIERDDAKNTVYLQMNSLKPEDAAVYTCAVGDGDYCSTYTCAAEVEYDYWGQGTQVTVSS | 104 nM | 0.00592 s⁻¹ | 29000 M⁻¹ s⁻¹ | 0.0118 s⁻¹ | 115000 M⁻¹ s⁻¹ | ~50 nM
